Test results: paper PMC9352664 (Nature Communications, 2022)

Columns and labels:
[1] = molecular target: HiSiaQM K273C-biotin (Haemophilus influenzae) (UniProt P44543); assay: SPR
HiSiaP (P-domain) [2] = molecular target: T1, HiSiaP (P-domain) (Haemophilus influenzae, UniProt P44542, E195R); settings: read-out: affinity; 50 mM Tris, 50 mM NaCl, pH 8; one approximate value printed for all three mutants
T1 construct: gene siaP

HiSiaP (P-domain) [3] = molecular target: T2, HiSiaP (P-domain) (Haemophilus influenzae, UniProt P44542, D81R); settings: read-out: affinity; 50 mM Tris, 50 mM NaCl, pH 8; one approximate value printed for all three mutants
T2 construct: gene siaP

HiSiaP (P-domain) [4] = molecular target: T3, HiSiaP (P-domain) (Haemophilus influenzae, UniProt P44542, S83R); settings: read-out: affinity; 50 mM Tris, 50 mM NaCl, pH 8; one approximate value printed for all three mutants
T3 construct: gene siaP

[5] = molecular target: HiSiaQM (wild type) (Haemophilus influenzae) (UniProt P44543); assay: single-molecule TIRF microscopy on solid-supported bilayers; HiSiaQM in DOPC solid-supported bilayers, AF-647-labelled P-domain without sialic acid; 20 mM HEPES, 150 mM NaCl, pH 7.4
HiSiaQM K273C-biotin = molecular target: T4, HiSiaQM K273C-biotin (Haemophilus influenzae, UniProt P44543, Maleimide-PEG2-biotin on the introduced cysteine K273C)
T4 chain: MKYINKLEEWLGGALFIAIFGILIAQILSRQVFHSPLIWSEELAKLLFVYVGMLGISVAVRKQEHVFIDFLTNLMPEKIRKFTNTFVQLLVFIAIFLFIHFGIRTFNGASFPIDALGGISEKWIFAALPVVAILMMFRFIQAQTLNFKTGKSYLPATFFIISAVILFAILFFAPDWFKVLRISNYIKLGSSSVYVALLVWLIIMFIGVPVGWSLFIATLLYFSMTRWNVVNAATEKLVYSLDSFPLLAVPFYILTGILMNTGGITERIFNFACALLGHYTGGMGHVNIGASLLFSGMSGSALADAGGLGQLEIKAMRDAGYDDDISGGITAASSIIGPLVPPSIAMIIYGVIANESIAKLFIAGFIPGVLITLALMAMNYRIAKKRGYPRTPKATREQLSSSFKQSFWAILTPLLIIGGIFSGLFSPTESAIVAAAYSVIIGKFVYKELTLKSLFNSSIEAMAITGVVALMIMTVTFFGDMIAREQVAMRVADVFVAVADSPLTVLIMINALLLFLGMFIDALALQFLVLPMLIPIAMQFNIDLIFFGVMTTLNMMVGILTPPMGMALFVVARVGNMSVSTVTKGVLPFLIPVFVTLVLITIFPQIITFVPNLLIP

HiSiaQM (wild type) [6] = molecular target: T5, HiSiaQM (wild type) (Haemophilus influenzae, UniProt P44543); assay: single-molecule TIRF microscopy on solid-supported bilayers; HiSiaQM in DOPC solid-supported bilayers pre-incubated with unlabelled VHHQM3 for at least 30 min, then AF-647-labelled P-domain added; settings: both partners purified
T5 construct: also called QM-domains; native QM-domains

HiSiaQM (wild type) [7] = molecular target: T5, HiSiaQM (wild type); assay: single-molecule TIRF microscopy on solid-supported bilayers; HiSiaQM in DOPC solid-supported bilayers stained with VHHQM3-AF-555, incubated at least 30 min, bilayer washed 5 times; settings: both partners purified

Molecule: HiSiaP (wild type) (from UniProt P44542 24-329) (natural protein)
- Kd [1]: 1000 nM

Molecule: CC(=O)N[C@H]1[C@H]([C@H](O)[C@H](O)CO)OC(O)(C(=O)O)C[C@@H]1O (stereo partly shown) [sialic acid]
- Kd (HiSiaP (P-domain) [2]): ~50 nM
- Kd (HiSiaP (P-domain) [3]): ~50 nM
- Kd (HiSiaP (P-domain) [4]): ~50 nM

Molecule: HiSiaP K254C labelled with AF-647 (from UniProt P44542) (natural protein; other documents disagree on this pair)
- reduction of P–QM binding events in the absence of sialic acid [5]: 50%

B1: VHHQM2 (VHH)
VHH: QVQLVESGGGLVQPGESLRLSCAASGSTFSSYGMSWVRQAPRKGPEWVSSISASGTLTRYADFVKGRFTVSRDNAKNTLFLQMNSLKPEDTALYYCARGGAPSVVYNRHDWGQGTQVTVSS
- Kd (HiSiaQM K273C-biotin): 9.83 nM

B2: VHHQM4 (VHH)
VHH: QVQLVETGGGLVQPGGSLRLSCAASAFTYDNYGIGWFRQAPGKEREGVSCISSSGGTVNYADSVKGRFTISRDNAKNTVYLQMNSLKPEDTAVYYCAALKYGSSCRFLRAANFGSWGQGTRVTVSS
- Kd (HiSiaQM K273C-biotin): 10.4 nM

B3: VHHQM5 (VHH)
VHH: QVQLVESGGGLVQPGGSLRLSCATSRFTLNYYDIGWFRQAPGKEREGVSCITSSGGNTNYADSVKGRFTISRDNAKNTVYLQMNSLKPEDTAIYYCAAAKYGSAWPCSSMPLRDFGSWGQGTQVTVSS
- Kd (HiSiaQM K273C-biotin): 1.06 nM

B4: VHHQM6 (VHH)
VHH: QLQLVESGGGLVQAGGSLRLSCTASRVTLNYHDIGWFRQAPGKEREGVSYISSSGGSTKYADFVKGRFTISRDNAKNTVYLQMNSLKPEDTAVYYCARSAAYGSSWLNPSRYDYWGQGTQVTVSS
- Kd (HiSiaQM K273C-biotin): 0.64 nM

B5: VHHQM7 (VHH)
VHH: QVQLVESGGGLVQPGGSLRLSCAASGFTLSYHAIGWFRQAPGKEREGVSFISSSGSSTNYADSVKGRFTISKDNAKNTVYLQMDSLKPEDTAVYYCARSAAYGSSWLNPSRYDYWGQGTQVTVSS
- Kd (HiSiaQM K273C-biotin): 4.88 nM

B6: VHHQM9 (VHH)
VHH: QLQLVESGGRSVQAGGSLRLSCAASGRAFTMAWFRQAPGKEREFVAARTWPVEYGYYADSVKDRFTISRDNAKNILYLQMTSLHPEDTAMYYCAASTANRDSVNVRFSDQYAYWGPGTQVTVSV
- Kd (HiSiaQM K273C-biotin): 0.36 nM

B7: VHHQM3 (VHH)
VHH: QLQLVETGGGLVQPGGSLRLSCTASRVTLDYHDIGWFRQAPGKEREGVSYISSSGGSTNYADSVKGRFTISRDNAKNTVYLQMNSLKPEDTAVYYCARSSAYGSSWLNPSRYDYWGQGTQVTVSS
- binding result (HiSiaQM (wild type) [6]): binds

B8: VHHQM3 S85C labelled with AF-555 (VHH)
VHH: QLQLVETGGGLVQPGGSLRLSCTASRVTLDYHDIGWFRQAPGKEREGVSYISSSGGSTNYADSVKGRFTISRDNAKNTVYLQMNCLKPEDTAVYYCARSSAYGSSWLNPSRYDYWGQGTQVTVSS
- binding result (HiSiaQM (wild type) [7]): binds
